In assay [1] the target is T1, recombinant human IGF-II (Insulin-like Growth Factor II) (human, UniProt P01344 25-91, biotinylated (Biotinyl-IGF-II, GroPep) where immobilised in SPR, site not stated; not biotinylated in ITC and as SPR analyte).
T1 construct: also called IGF2; IGF-2
In words: SPR, IGF-II immobilised, kinetic fit. The procedure, abridged:
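Domain 11 proteins made in Pichia pastoris and purified by His-tag were passed in duplicate, in random order, over ~50 RU of biotinylated IGF-II bound to a streptavidin Sensor Chip SA on a BIAcore 3000 (25° C, HBS-EP, 40 μl/min, 2 min injections, 100 s dissociation, 2 M MgCl₂ regeneration), at 4096–8 nM, or 16384–32 nM for three constructs. Kinetic rate constants and Kd were derived by global sensorgram fitting in BIAevaluation 4.0.1, with blank-flow-cell and buffer-injection signals subtracted first.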
(SPR reads the build-up and loss of mass on a sensor chip optically.)

Assay [2] addresses T1, recombinant human IGF-II (Insulin-like …). In words: SPR, IGF-II immobilised, steady state. The method, boiled down: (§1)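 Domain 11 proteins were secreted from Pichia pastoris, purified by His-tag and injected in duplicate over about 50 RU of biotinylated IGF-II captured on a streptavidin Sensor Chip SA in a BIAcore 3000 at 25° C, in HBS-EP at 40 μl/min with 2 min injections. Analyte concentrations spanned 4096–8 nM, or 16384–32 nM for three constructs, and blank-flow-cell and buffer-injection signals were subtracted. Kd was obtained in BIAevaluation by fitting the equilibrium response at each concentration to a steady-state affinity model.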

Assay [3] shares this target. Description: SPR, steady-state KD relative to wild type. The method, boiled down:
as §1

T1 sequence (P01344 25-91 limits assumed): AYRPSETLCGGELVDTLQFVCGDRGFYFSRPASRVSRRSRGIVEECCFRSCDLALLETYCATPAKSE

B1: IGF2R domain 11 with arginine at position 1544 (E1544R) (receptor)
chain: NEHDDCQVTNPSTGHLFDLSSLSGRAGFTAAYSRKGLVYMSICGENENCPPGVGACFGQTRISVGKANKRLRYVDQVLQLVYKDGSPCPSKSGLSYKSVISFVCRPEAGPTNRPMLISLDKQTCTLFFSWHTPLACEQATHHHHHH
For B1, in assay [1], the Kd was found to be 17.8 nM, the koff is 0.0407 s⁻¹ and the kon was 2.29e+06 M⁻¹ s⁻¹. The Kd in assay [2] was found to be 14.1 nM. Further, the “Relative Affinity” value in assay [3] was 7.33 fold (wild type = 1.00).

B2: IGF2R domain 11 with tyrosine at position 1544 (E1544Y) (receptor)
chain: NEHDDCQVTNPSTGHLFDLSSLSGRAGFTAAYSYKGLVYMSICGENENCPPGVGACFGQTRISVGKANKRLRYVDQVLQLVYKDGSPCPSKSGLSYKSVISFVCRPEAGPTNRPMLISLDKQTCTLFFSWHTPLACEQATHHHHHH
Take B2: in assay [1], the Kd came out at 65 nM, the off-rate constant (koff) is 0.0614 s⁻¹ and the kon turned out to be 944000 M⁻¹ s⁻¹. Further, in assay [2], the dissociation constant (Kd) turned out to be 57.4 nM. The “Relative Affinity” value in assay [3] was 1.8 fold (wild type = 1.00).

B3: IGF2R domain 11 with proline at position 1544 (E1544P) (receptor)
chain: NEHDDCQVTNPSTGHLFDLSSLSGRAGFTAAYSPKGLVYMSICGENENCPPGVGACFGQTRISVGKANKRLRYVDQVLQLVYKDGSPCPSKSGLSYKSVISFVCRPEAGPTNRPMLISLDKQTCTLFFSWHTPLACEQATHHHHHH
With B3, in assay [1], the Kd stood at 234 nM, the koff was 0.172 s⁻¹ and the kon is 734000 M⁻¹ s⁻¹. Further, the Kd in assay [2] was determined as 211 nM. Besides, the “Relative Affinity” value in assay [3] is 0.49 fold (wild type = 1.00).

B4: IGF2R domain 11 with glutamine at position 1544 (E1544Q) (receptor)
chain: NEHDDCQVTNPSTGHLFDLSSLSGRAGFTAAYSQKGLVYMSICGENENCPPGVGACFGQTRISVGKANKRLRYVDQVLQLVYKDGSPCPSKSGLSYKSVISFVCRPEAGPTNRPMLISLDKQTCTLFFSWHTPLACEQATHHHHHH
Turning to B4, in assay [1], the Kd is 32.8 nM, the koff came to 0.0578 s⁻¹ and the kon came out at 1.76e+06 M⁻¹ s⁻¹. In addition, in assay [2], the Kd turned out to be 26.7 nM. In assay [3], the “Relative Affinity” value is 3.87 fold (wild type = 1.00).

B5: IGF2R domain 11 with phenylalanine at position 1544 (E1544F) (receptor)
chain: NEHDDCQVTNPSTGHLFDLSSLSGRAGFTAAYSFKGLVYMSICGENENCPPGVGACFGQTRISVGKANKRLRYVDQVLQLVYKDGSPCPSKSGLSYKSVISFVCRPEAGPTNRPMLISLDKQTCTLFFSWHTPLACEQATHHHHHH
As for B5, in assay [1], the Kd came out at 69.4 nM, the koff was 0.0791 s⁻¹ and the kon stood at 1.14e+06 M⁻¹ s⁻¹. Moreover, the Kd in assay [2] was determined as 56.4 nM. In assay [3], the “Relative Affinity” value is 1.83 fold (wild type = 1.00).

B6: IGF2R domain 11 with tryptophan at position 1544 (E1544W) (receptor)
chain: NEHDDCQVTNPSTGHLFDLSSLSGRAGFTAAYSWKGLVYMSICGENENCPPGVGACFGQTRISVGKANKRLRYVDQVLQLVYKDGSPCPSKSGLSYKSVISFVCRPEAGPTNRPMLISLDKQTCTLFFSWHTPLACEQATHHHHHH
Regarding B6, in assay [1], the Kd turned out to be 62.8 nM, the koff is 0.0588 s⁻¹ and the kon came out at 936000 M⁻¹ s⁻¹. Besides, the equilibrium dissociation constant (Kd) in assay [2] worked out at 53.2 nM. Moreover, the “Relative Affinity” value in assay [3] was 1.94 fold (wild type = 1.00).

B7: IGF2R domain 11 with isoleucine at position 1544 (E1544I) (receptor)
chain: NEHDDCQVTNPSTGHLFDLSSLSGRAGFTAAYSIKGLVYMSICGENENCPPGVGACFGQTRISVGKANKRLRYVDQVLQLVYKDGSPCPSKSGLSYKSVISFVCRPEAGPTNRPMLISLDKQTCTLFFSWHTPLACEQATHHHHHH
Regarding B7, in assay [1], the Kd is 49.9 nM, the koff was 0.0649 s⁻¹ and the kon worked out at 1.3e+06 M⁻¹ s⁻¹. In addition, in assay [2], the Kd turned out to be 42.5 nM. In assay [3], the “Relative Affinity” value is 2.43 fold (wild type = 1.00).

B8: IGF2R domain 11 with serine at position 1544 (E1544S) (receptor)
chain: NEHDDCQVTNPSTGHLFDLSSLSGRAGFTAAYSSKGLVYMSICGENENCPPGVGACFGQTRISVGKANKRLRYVDQVLQLVYKDGSPCPSKSGLSYKSVISFVCRPEAGPTNRPMLISLDKQTCTLFFSWHTPLACEQATHHHHHH
On to B8, for which, in assay [1], the Kd turned out to be 23.3 nM, the dissociation rate constant (koff) was determined as 0.0494 s⁻¹ and the kon amounted to 2.12e+06 M⁻¹ s⁻¹. Moreover, the Kd in assay [2] was determined as 19.7 nM. Further, the “Relative Affinity” value in assay [3] was 5.24 fold (wild type = 1.00).

B9: IGF2R domain 11 with threonine at position 1544 (E1544T) (receptor)
chain: NEHDDCQVTNPSTGHLFDLSSLSGRAGFTAAYSTKGLVYMSICGENENCPPGVGACFGQTRISVGKANKRLRYVDQVLQLVYKDGSPCPSKSGLSYKSVISFVCRPEAGPTNRPMLISLDKQTCTLFFSWHTPLACEQATHHHHHH
As to B9, in assay [1], the Kd was found to be 69.3 nM, the koff is 0.0692 s⁻¹ and the kon stood at 998000 M⁻¹ s⁻¹. Moreover, the Kd in assay [2] came to 60 nM. In addition, the “Relative Affinity” value in assay [3] is 1.72 fold (wild type = 1.00).

B10: IGF2R domain 11 with methionine at position 1544 (E1544M) (receptor)
chain: NEHDDCQVTNPSTGHLFDLSSLSGRAGFTAAYSMKGLVYMSICGENENCPPGVGACFGQTRISVGKANKRLRYVDQVLQLVYKDGSPCPSKSGLSYKSVISFVCRPEAGPTNRPMLISLDKQTCTLFFSWHTPLACEQATHHHHHH
Consider B10, for which, in assay [1], the Kd was found to be 44.6 nM, the koff was 0.0566 s⁻¹ and the kon came out at 1.27e+06 M⁻¹ s⁻¹. For the same molecule, the dissociation constant (Kd) in assay [2] was determined as 37.6 nM. Further, the “Relative Affinity” value in assay [3] was 2.75 fold (wild type = 1.00).

B11: IGF2R domain 11 with aspartate at position 1544 (E1544D) (receptor)
chain: NEHDDCQVTNPSTGHLFDLSSLSGRAGFTAAYSDKGLVYMSICGENENCPPGVGACFGQTRISVGKANKRLRYVDQVLQLVYKDGSPCPSKSGLSYKSVISFVCRPEAGPTNRPMLISLDKQTCTLFFSWHTPLACEQATHHHHHH
For the molecule B11, in assay [1], the Kd amounted to 230 nM, the koff was 0.14 s⁻¹ and the kon came out at 608000 M⁻¹ s⁻¹. Besides, the Kd in assay [2] was found to be 213 nM. For the same molecule, in assay [3], the “Relative Affinity” value was 0.48 fold (wild type = 1.00).

B12: IGF2R domain 11 with glycine at position 1544 (E1544G) (receptor)
chain: NEHDDCQVTNPSTGHLFDLSSLSGRAGFTAAYSGKGLVYMSICGENENCPPGVGACFGQTRISVGKANKRLRYVDQVLQLVYKDGSPCPSKSGLSYKSVISFVCRPEAGPTNRPMLISLDKQTCTLFFSWHTPLACEQATHHHHHH
In the case of B12, in assay [1], the Kd turned out to be 199 nM, the koff is 0.219 s⁻¹ and the on-rate (kon) stood at 1.1e+06 M⁻¹ s⁻¹. The Kd in assay [2] is 180 nM. The “Relative Affinity” value in assay [3] was 0.57 fold (wild type = 1.00).

B13: IGF2R domain 11 with histidine at position 1544 (E1544H) (receptor)
chain: NEHDDCQVTNPSTGHLFDLSSLSGRAGFTAAYSHKGLVYMSICGENENCPPGVGACFGQTRISVGKANKRLRYVDQVLQLVYKDGSPCPSKSGLSYKSVISFVCRPEAGPTNRPMLISLDKQTCTLFFSWHTPLACEQATHHHHHH
With B13, in assay [1], the Kd was 38.3 nM, the koff stood at 0.0689 s⁻¹ and the kon was 1.8e+06 M⁻¹ s⁻¹. For the same molecule, the Kd in assay [2] turned out to be 33.7 nM. The “Relative Affinity” value in assay [3] was 3.07 fold (wild type = 1.00).

B14: IGF2R domain 11 with leucine at position 1544 (E1544L) (receptor)
chain: NEHDDCQVTNPSTGHLFDLSSLSGRAGFTAAYSLKGLVYMSICGENENCPPGVGACFGQTRISVGKANKRLRYVDQVLQLVYKDGSPCPSKSGLSYKSVISFVCRPEAGPTNRPMLISLDKQTCTLFFSWHTPLACEQATHHHHHH
Consider B14, for which, in assay [1], the Kd worked out at 62.4 nM, the koff turned out to be 0.0655 s⁻¹ and the on-rate (kon) turned out to be 1.05e+06 M⁻¹ s⁻¹. Besides, in assay [2], the dissociation constant (Kd) was 51.1 nM. In addition, the “Relative Affinity” value in assay [3] is 2.02 fold (wild type = 1.00).

B15: IGF2R domain 11 with asparagine at position 1544 (E1544N) (receptor)
chain: NEHDDCQVTNPSTGHLFDLSSLSGRAGFTAAYSNKGLVYMSICGENENCPPGVGACFGQTRISVGKANKRLRYVDQVLQLVYKDGSPCPSKSGLSYKSVISFVCRPEAGPTNRPMLISLDKQTCTLFFSWHTPLACEQATHHHHHH
For the molecule B15, in assay [1], the dissociation constant Kd amounted to 141 nM, the koff came out at 0.122 s⁻¹ and the kon is 867000 M⁻¹ s⁻¹. Besides, the Kd in assay [2] amounted to 118 nM. Further, the “Relative Affinity” value in assay [3] is 0.88 fold (wild type = 1.00).

What is called Kd is the free concentration of one partner at which half of the binding sites on the other are occupied at equilibrium, for simple one-to-one binding. What is called koff is the first-order rate constant of dissociation. By kon is commonly meant a measure of how fast the partners come together.
